Data published in paper PMC8718266.

Biological target: HA-FBW7 (UniProt Q8VBV4)
Assay: FLAG IP, HA immunoblot
Conditions: reference: wild type

Row | Substance | binding against the reference (sites T243,S247) | binding against the reference (sites T171,S175)
1 | KLF2 (3xFLAG-KLF2) (from UniProt Q60843) 2A C (T243A/S247A) | weaker | –
2 | KLF2 (3xFLAG-KLF2) (from UniProt Q60843) 2A N (T171A/S175A) | – | weaker
